Numbering of substitutions follows the chain as printed.
B1: 4A2 (antibody, V domains shown)
VH: QVQLVQSGTEVKKPGASVKVSCKASGYTFTNYDINWVRQATGQGLEWMGWMHPNSGNTGYAQKFQGRVTLTRNTSISTAYMELSSLRSEDTAVYYCASSSGWYYFDYWGQGTLVTVSS
VL: DIVMTQSPDSLAVSLGERATINCKSSQSILHSSNNNNYLAWFQQKPGQPPKLLLYWASTRESGVPDRFSGSGSGTDFTLTISSLQPEDVAVYYCQQYYNTPVTFGPGTKVGIK
notes: mAb
B2: 7E11 (antibody, V domains shown)
VH: QVQLVESGGGVVQPGRSLRLSCAASGFTFSSFGMHWVRQAPGKGLEWVAIIWHDGSNKYYADSVKGRFTISRDNSNNTLYLQMSSLRAEDTAVYYCARDLSMGGMDVWGQGTTVTVSS
VL: DIQMTQSPSSLSASVGDRVTIACRASQNIISYLNWYQQKPGKAPKFLIYTASSLQSGVPSRFSGSGSGTDFTLTISSLQPEDFAIYYCQQTYSTPLTFGGGTKVEIK
notes: mAb
B3: 56E5 (antibody, V domains shown)
VH: QVQLVQSGAEVKKPGASVKVSCQASGYTFTGYHMHWVRQAPGQGLEWMGWINPNNNATNYAQKFQGRVTMTRDTSISTAYMELRRLRSDDTAVYHCARDGTSSFDYWGQGTLVTVSS
VL: DIQMTQSPSSVSASVGDRVTITCRASQGIRKWLAWYQQKPGKAPKLLIYAASSLQSGVPSRFSGSGSGTDFTLTISSLQPEDFATYYCQQANSFPFTFGPGTKVDIK
notes: mAb
B4: 5E5 (antibody, V domains shown)
VH: QVQLVESGGGVVQPGRSLRLSCAASGFTFSNYVMHWVRQAPGKGLEWVAVIWYDGSNKYYADSVKGRFTISRDNSKNTLYLQMNSLRAEDTAVYYCTREVYSSGWYDYGMDVWGQGTTVTVSS
VL: DIQMTQSPSSLSASVGDRVTITCRASQGIRNDLGWYQQKPGKAPKRLIYAASSLQSGVPSRFSGSGSGTEFTLTISSLQPEDFATYYCLQHYSYPRTFGQGTKVEVK
notes: mAb
B5: 7G4 (antibody, V domains shown)
VH: B4 VH with S30N, N84T, T97A, V100K, G104N
VL: B4 VL with K39R, F83S, Q90H, H91Q, V106I
notes: mAb
B6: 26C4 (antibody, V domains shown)
VH: B1 VH with T9A, T41S, H52N, K63R, L70M, S77N
VL: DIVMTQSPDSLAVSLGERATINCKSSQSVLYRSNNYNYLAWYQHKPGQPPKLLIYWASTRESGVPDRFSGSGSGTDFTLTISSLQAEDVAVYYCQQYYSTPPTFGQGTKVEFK
notes: mAb
B7: 29H8 (antibody, V domains shown)
VH: B1 VH with T9A, K12Q, H52N, K63R, L70M, T78A
VL: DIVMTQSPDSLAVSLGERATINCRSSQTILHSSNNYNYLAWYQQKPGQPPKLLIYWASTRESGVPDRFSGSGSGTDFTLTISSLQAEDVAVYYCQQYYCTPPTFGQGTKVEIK
notes: mAb
B8: 25A4 (antibody, V domains shown)
VH: B1 VH with Q3L, T9A, K13R, H52Y, L70M
VL: DIVMTQFPDSLAVSLGERATIKCKSSQSVLYSSHNNNYLAWYQQKPGQPPKLLLYWASTRESGVPDRFSGSGSGTEFTLTISSLEAEDVAVYYCQQYYSTPPTFGQGTKVEIK
notes: mAb
B9: 6G7 (antibody, V domains shown)
VH: QVQLVESGGGVVQPGRSLRLSCAASGFTFSSYGMHWVRQTPGKGLEWVAIISYVGKNKYYADSVKGRFTISRDNSKNTLYLQMNSLRAEDTAVYYCARRGNSYGGYGMDVWGQGTTVTVSS
VL: DIQMTQSPSSRSASVGDRVTITCQASQDISNYLNWCQQKPGKALKLLIYDASTLETGVPSRFSGSGSGTDFTFTISSVQPEDIATYYCQQYDNVPITFGQGTRLEIK
notes: mAb
B10: 22G5 (antibody, V domains shown)
VH: EVQLLESGGGLVQPGGSLRLSCAASGFTFSSYAMNWVRQAPGMGLEWVSVISRSGGYTYYADSVKGRFTISRDNSKNTLYLQMNSLRAEDTAVYYCASRLAVAGSEAFDIWGQGTLVTVSS
VL: DIQMTQSPSSLSASVGDRVTITCRASQNISSYLNWYQQKQGKAPKLLIYAASSLQNGVPSRFSGRGSGTDFTLTISSLQPEDFATYYCQQSYRTPLFTFGPGTKVDFK
notes: mAb
B11: 48B12 (antibody, V domains shown)
VH: EVQLLESGGGLVQPGGSLRLSCAASGFTFSSYAMNWVRQAPGKGLEWVSAISGRGGNTFYADSVKGRFTISRDNSKNTLYLQMNSLRAEDTAVYYCAKRETYNWNYEGFDYWGQGTLVTVSS
VL: SYELTQPPSVSVSPGQTARITCSGDALPKKYAYWYQQKSGQAPVLVIYEDSKRPSGIPERFSGSSSGTMATLTISGAQVEDEADYYCNSTDSSGNHVVFGGGTKLTVL
notes: mAb
B12: 184E7 (antibody, V domains shown)
VH: QVQLVQSGAEVKTPGASVKVSCRASGYTFTSYNMHWVRQVPGQGLEWMGWINPNNGGSNYTQKFQGRVTMTRDTSISTAYMELSRLRSDDTAVYYCARKFGDWGQGTLVTVSS
VL: DIQMTQSPSSRSASIGERVTITCRASQGISNYLAWIQQKPGTAPKSLIYAASSLQSGVSSRFSGSGFGTDFTITISSVQREDFATYYCQQYNGYPFTFGHGTKVDIK
notes: mAb
B13: 72G9 (antibody, V domains shown)
VH: EVQLVESGGGLVKPGGSLRLSCAASGFTFSSYSMNWVRQAPGKGLEWVSSISGSSSYIYYADSVKGRFTISRDNAKNSLYLQMNSLRAEDTAVYFCARGGSRGFDPWGQGTLVTVSS
VL: B3 VL with V11L, G28S, R30T, K31S, W32Y, A34N, A50T, A91S, N92H
notes: mAb
B14: 194A4 (antibody, V domains shown)
VH: QVQLVQSGTEVKKPGASLKVSCKASGYTFTVYYLNWVRQAPGQGLEWMGWINPNSGGTNYAQKFQGRVTMTRDTSISTAYMELSRLRSDDTAVYYCARGYDILTGWGQGTLVTVSS
VL: EIVLTQSPGTLSLSPGERATLSCRASRGVSNIYLAWYQQKPGQAPRLLIYGASNRATGIPDRFSGSGSGTDFTLTISRLEPEDFAVYYCQHNDYSMFTFGPGTKVDIK
notes: mAb
B15: 190F8 (antibody, V domains shown)
VH: QVQLVESGGGVVQPGRSLRLSCAASGFTFSTYGMHWVRQAPGKGLEWVAVIWYDGSNKNYADSVKGRFTISRDNSKNTLYLQMNSLRAEDTAVYYCARDQGVGYDGLDVWGQGTTVTVSS
VL: DIQMTQSPSSLSASVGDRVTITCRTSQGIGNYLAWFQQKPGKAPKSLLYKASSLQSGVPSKFSGSGSGTDFTLTISSLQPEDFATYYCQQYMTYPLTFGGGTKVEIK
notes: mAb
B16: 191G1 (antibody, V domains shown)
VH: B15 VH with T31S, K58E, N59H, Q100R, D105Y
VL: B15 VL with T25A, G30S, L48I, K50A, Q90H, M92L
notes: mAb
B17: 191G10 (antibody, V domains shown)
VH: B15 VH with T31S
VL: B15 VL with N31K, A51V
notes: mAb
B18: 198G3 (antibody, V domains shown)
VH: B15 VH with R19K, S56T, Y80C
VL: B15 VL with T5A, N31K, S56G
notes: mAb
B19: 194C1 (antibody, V domains shown)
VH: B15 VH with T31S, K58E, N59H, D99N, Q100R, D105Y
VL: B15 VL with T25A, G30S, L48I, K50A, Q89L, Q90H, M92L
notes: mAb
B20: 176H4 (antibody, V domains shown)
VH: QVQLVESGGGVVQPGRSLRLSCAASGFTFSSYGMHWVRQAPGKGLEWVAIIWYDGSYKYYADSVKGRFTISRDNSKNTLYLQMSSLRAEDTAVYYCARDAHDFWSGYFAYWGQGALVTVSS
VL: DIVMTQTPLSLSVTPGQPASISCKSSQSLLHGDGKTYLYWYLQKPGQPPQLLIYEVSNRFSGVPDRFSGSGSGTDFTLKISRVEAEDVGIYYCMQSIQIPWTFGQGTRVEIK
notes: mAb
B21: 197G3 (antibody, V domains shown)
VH: B15 VH with A23V, T31S, Y32H, Q100P, G101S, L107M
VL: DIQMTQSPSSLSASVGDRVTITCRASQGIGNHLAWFQQKPGKAPKSLIYAASSLQSGVPSKFSGSRSGTDFSLTISSLQPEDFATYYCQQYSNYPVTFGPGTKVDIK
notes: mAb

target: T1, human ASGR-1 (wild type) (human, UniProt P07306 1-291); test: FACS ratio: 65C12 geomean / this mAb geomean
T1 construct: also called wt ASGR1; huASGR-1
T1 sequence: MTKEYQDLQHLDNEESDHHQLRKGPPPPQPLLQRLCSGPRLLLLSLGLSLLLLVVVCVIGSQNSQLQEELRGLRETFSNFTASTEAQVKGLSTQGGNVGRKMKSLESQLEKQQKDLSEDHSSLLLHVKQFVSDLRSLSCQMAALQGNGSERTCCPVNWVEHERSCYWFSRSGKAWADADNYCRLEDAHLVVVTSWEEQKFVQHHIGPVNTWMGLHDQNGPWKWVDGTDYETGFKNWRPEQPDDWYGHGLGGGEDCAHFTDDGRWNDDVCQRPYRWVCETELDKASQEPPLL
Outline: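 CHO-S cells transiently expressing wild-type or point-mutant hASGR-1 were stained with antibody at 5 ug/ml for 1 h at 4 °C. Bound antibody was detected by Fc-specific Alexa 647 secondary plus 7-AAD and read by flow cytometry. Ratio is 65C12 geomean divided by test mAb geomean, normalizing for expression.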

In order of rising “Expression Normalization to mAb 65C12” value:
1. B8  1.01
2. B11  1.07
3. B5  1.16
4. B6  1.22
5. B2  1.23
6. B10  1.24
7. B12  1.31
8. B3  1.32
9. B1  1.36
10. B7  1.37
11. B4  1.38
12. B9  1.45
13. B13  1.54
14. B15  1.54
15. B17  1.66
16. B20  1.67
17. B16  2.22
18. B18  2.61
19. B19  2.69
20. B14  3.44
21. B21  4.21

target: T2, soluble human ASGR-1 carbohydrate binding domain (CBD; amino acid residues 154-281; N-terminal 6xHis tag) (human, UniProt P07306 154-281); test: Octet BLI, mAb on AR2G tips, 1:1 fit
T2 construct: also called ASGR-1 CBD
T2 sequence: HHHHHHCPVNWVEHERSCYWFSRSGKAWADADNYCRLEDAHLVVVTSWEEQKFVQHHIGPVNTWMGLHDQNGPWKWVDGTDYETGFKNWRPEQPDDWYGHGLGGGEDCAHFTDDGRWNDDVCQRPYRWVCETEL
Description: To quantitate the binding affinity of specific antibodies for ASGR-1 (either purified from hybridoma supernatants or made recombinantly), association and dissociation rates can be measured using a ForteBio Octet instrument. […] Experimental kinetic results were globally fit to a 1:1 binding model in order to determine the association and dissociation rate constants as well as the equilibrium dissociation constant. Association and dissociation times were chosen to ensure that curvature was present during association curves and measured dissociation levels dropped at least 5% from starting levels. All Octet buffers contained 10 mM Tris (pH7.5), 150 mM NaCl, 1 mM CaCl₂), 0.10 mg/ml BSA and 0.13% Triton X-100. Octet assays were run at 27° C. Because this assay only measures binding to the ASGR-1 CBD, antibodies that recognize epitopes partially or entirely outside the CBD and/or recognize ASGR-1 in the context of a native ASGR complex, for example, as could occur on cell membranes, may not score as positive in this assay.

In order of rising Kd:
1. B8  0.03 nM
2. B18  0.04 nM
3. B1  0.06 nM
4. B11  0.3 nM
5. B12  0.3 nM
6. B6  0.4 nM
7. B3  0.5 nM
8. B13  0.5 nM
9. B17  0.5 nM
10. B15  0.6 nM
11. B14  0.7 nM
12. B20  0.8 nM
13. B21  0.8 nM
14. B5  0.9 nM
15. B7  1 nM
16. B19  1.3 nM
17. B10  1.4 nM
18. B2  1.6 nM
19. B9  2 nM
20. B16  2.4 nM
21. B4  7.6 nM

Reference: patent publication US20190248902A1 (published 2019)
